Data taken from patent publication US20240400708A1.
Changes are numbered by the printed parent chain. In names and notes the source's numbering stands.

B1: feline IgG1a mutant ID No. 253: S428M, S434L (antibody, part only; not given: Variable domains, not shown: another chain or arm of the molecule)
constant: ASTTAPSVFPLAPSCGTTSGATVALACLVLGYFPEPVTVSWNSGALTSGVHTFPAVLQASGLYSLSSMVTVPSSRWLSDTFTCNVAHPPSNTKVDKTVRKTDHPPGPKPCDCPKCPPPEMLGGPSIFIFPPKPKDTLSISRTPEVTCLVVDLGPDDSDVQITWFVDNTQVYTAKTSPREEQFNSTYRVVSVLPILHQDWLKGKEFKCKVNSKSLPSPIERTISKAKGQPHEPQVYVLPPAQEELSRNKVSVTCLIKSFHPPDIAVEWEITGQPEPENNYRTTPPQLDSDGTYFVYSKLSVDRSHWQRGNTYTCSVMHEALHLHHTQKSLTQSPGK
B2: feline IgG1a mutant ID No. 255: S428M, S434P (antibody, part only; not given: Variable domains, not shown: another chain or arm of the molecule)
constant: B1 constant with L322P
B3: feline IgG1a mutant ID No. 264: D312P, L314K, S434Y (antibody, part only; not given: Variable domains, not shown: another chain or arm of the molecule)
constant: B1 constant with D198P, L200K, M316S, L322Y
B4: feline IgG1a mutant ID No. 265: Q311W, D312P, L314K, S434Y (antibody, part only; not given: Variable domains, not shown: another chain or arm of the molecule)
constant: B1 constant with Q197W, D198P, L200K, M316S, L322Y
B5: feline IgG1a mutant ID No. 275: S252R, S434R (antibody, part only; not given: Variable domains, not shown: another chain or arm of the molecule)
constant: B1 constant with S138R, M316S, L322R
B6: feline IgG1a mutant ID No. 284: S252Y, Q311W, D312P, S434Y (antibody, part only; not given: Variable domains, not shown: another chain or arm of the molecule)
constant: B1 constant with S138Y, Q197W, D198P, M316S, L322Y
B7: feline IgG1a mutant ID No. 286: S252Y, S428Y, D312P, L314K (antibody, part only; not given: Variable domains, not shown: another chain or arm of the molecule)
constant: B1 constant with S138Y, D198P, L200K, M316Y, L322S
B8: feline IgG1a mutant ID No. 298: S428Y, Q311W, D312P, L314K (antibody, part only; not given: Variable domains, not shown: another chain or arm of the molecule)
constant: B1 constant with Q197W, D198P, L200K, M316Y, L322S
B9: feline IgG1a mutant ID No. 302: A431K, S434P (antibody, part only; not given: Variable domains, not shown: another chain or arm of the molecule)
constant: B1 constant with M316S, A319K, L322P
B10: feline IgG1a mutant ID No. 304: D399M, D401R (antibody, part only; not given: variable domains and light chain, not shown: another chain or arm of the molecule; small tags and cut ends)
constant: B1 constant with D287M, D289R, M316S, L322S
B11: feline IgG1a mutant ID No. 306: D399M, T403R (antibody, part only; not given: Variable domains, not shown: another chain or arm of the molecule; small tags and cut ends)
constant: B1 constant with D287M, T291R, M316S, L322S
B12: feline IgG1a mutant ID No. 307: D401R, T403R (antibody, part only; not given: Variable domains, not shown: another chain or arm of the molecule; small tags and cut ends)
constant: B1 constant with D289R, T291R, M316S, L322S
B13: feline IgG1a mutant ID No. 309: P247V, T250Q (antibody, part only; not given: Variable domains, not shown: another chain or arm of the molecule; small tags and cut ends)
constant: B1 constant with P133V, T136Q, M316S, L322S
B14: feline IgG1a mutant ID No. 311: Q311H, D312P, L314K (antibody, part only; not given: Variable domains, not shown: another chain or arm of the molecule; small tags and cut ends)
constant: B1 constant with Q197H, D198P, L200K, M316S, L322S
B15: feline IgG1a mutant ID No. 312: Q311K, D312P, L314K (antibody, part only; not given: Variable domains, not shown: another chain or arm of the molecule)
constant: B1 constant with Q197K, D198P, L200K, M316S, L322S
B16: feline IgG1a mutant ID No. 313: Q311M, D312P, L314K (antibody, part only; not given: Variable domains, not shown: another chain or arm of the molecule)
constant: B1 constant with Q197M, D198P, L200K, M316S, L322S
B17: feline IgG1a mutant ID No. 314: Q311R, D312P, L314K (antibody, part only; not given: Variable domains, not shown: another chain or arm of the molecule)
constant: B1 constant with Q197R, D198P, L200K, M316S, L322S
B18: feline IgG1a mutant ID No. 315: Q311Y, D312P, L314K (antibody, part only; not given: Variable domains, not shown: another chain or arm of the molecule)
constant: B1 constant with Q197Y, D198P, L200K, M316S, L322S
B19: feline IgG1a mutant ID No. 320: S428Y, D312P, S434P (antibody, part only; not given: Variable domains, not shown: another chain or arm of the molecule)
constant: B1 constant with D198P, M316Y, L322P
B20: feline IgG1a mutant ID No. 322: S428Y, D312P, S434Y, D399M, D401R (antibody, part only; not given: variable domains and light chain, not shown: another chain or arm of the molecule)
constant: B1 constant with D198P, D287M, D289R, M316Y, L322Y
B21: feline IgG1a mutant ID No. 330: S428Y, D312P, S434Y, Q311K, L314K (antibody, part only; not given: Variable domains, not shown: another chain or arm of the molecule; small tags and cut ends)
constant: B1 constant with Q197K, D198P, L200K, M316Y, L322Y
B22: feline IgG1a S434E (antibody, part only; not given: Variable domains, not shown: another chain or arm of the molecule)
constant: B1 constant with M316S, L322E
B23: feline IgG1a E430I (antibody, part only; not given: Variable domains, not shown: another chain or arm of the molecule)
constant: B1 constant with M316S, E318I, L322S
B24: feline IgG1a E430Q (antibody, part only; not given: Variable domains, not shown: another chain or arm of the molecule)
constant: B1 constant with M316S, E318Q, L322S
B25: feline IgG1a H436G (antibody, part only; not given: Variable domains, not shown: another chain or arm of the molecule)
constant: B1 constant with M316S, L322S, H324G
B26: feline IgG1a H436K (antibody, part only; not given: Variable domains, not shown: another chain or arm of the molecule)
constant: B1 constant with M316S, L322S, H324K
B27: feline IgG1a H436M (antibody, part only; not given: Variable domains, not shown: another chain or arm of the molecule)
constant: B1 constant with M316S, L322S, H324M
B28: feline IgG1a H436R (antibody, part only; not given: Variable domains, not shown: another chain or arm of the molecule)
constant: B1 constant with M316S, L322S, H324R
B29: feline IgG1a L432S (antibody, part only; not given: Variable domains, not shown: another chain or arm of the molecule)
constant: B1 constant with M316S, L320S, L322S
B30: feline IgG1a P247I (antibody, part only; not given: Variable domains, not shown: another chain or arm of the molecule)
constant: B1 constant with P133I, M316S, L322S
B31: feline IgG1a P247L (antibody, part only; not given: Variable domains, not shown: another chain or arm of the molecule)
constant: B1 constant with P133L, M316S, L322S
B32: feline IgG1a P247V (antibody, part only; not given: Variable domains, not shown: another chain or arm of the molecule)
constant: B1 constant with P133V, M316S, L322S
B33: feline IgG1a T250E (antibody, part only; not given: Variable domains, not shown: another chain or arm of the molecule)
constant: B1 constant with T136E, M316S, L322S
B34: feline IgG1a T250I (antibody, part only; not given: Variable domains, not shown: another chain or arm of the molecule)
constant: B1 constant with T136I, M316S, L322S
B35: feline IgG1a T250Q (antibody, part only; not given: Variable domains, not shown: another chain or arm of the molecule)
constant: B1 constant with T136Q, M316S, L322S
B36: feline IgG1a T250S (antibody, part only; not given: Variable domains, not shown: another chain or arm of the molecule)
constant: B1 constant with T136S, M316S, L322S
B37: feline IgG1a T250V (antibody, part only; not given: Variable domains, not shown: another chain or arm of the molecule)
constant: B1 constant with T136V, M316S, L322S
B38: feline IgG1a T437A (antibody, part only; not given: Variable domains, not shown: another chain or arm of the molecule)
constant: B1 constant with M316S, L322S, T325A
B39: feline IgG1a T437R (antibody, part only; not given: variable domains and light chain, not shown: another chain or arm of the molecule)
constant: B1 constant with M316S, L322S, T325R
B40: feline IgG1a Y285A (antibody, part only; not given: Variable domains, not shown: another chain or arm of the molecule)
constant: B1 constant with Y171A, M316S, L322S
B41: feline IgG1a A378C (antibody, part only; not given: Variable domains, not shown: another chain or arm of the molecule)
constant: B1 constant with A264C, M316S, L322S
B42: feline IgG1a A378D (antibody, part only; not given: Variable domains, not shown: another chain or arm of the molecule)
constant: B1 constant with A264D, M316S, L322S
B43: feline IgG1a A378E (antibody, part only; not given: Variable domains, not shown: another chain or arm of the molecule)
constant: B1 constant with A264E, M316S, L322S
B44: feline IgG1a A378F (antibody, part only; not given: Variable domains, not shown: another chain or arm of the molecule)
constant: B1 constant with A264F, M316S, L322S
B45: feline IgG1a A378G (antibody, part only; not given: Variable domains, not shown: another chain or arm of the molecule)
constant: B1 constant with A264G, M316S, L322S
B46: feline IgG1a A378H (antibody, part only; not given: Variable domains, not shown: another chain or arm of the molecule)
constant: B1 constant with A264H, M316S, L322S
B47: feline IgG1a A378I (antibody, part only; not given: Variable domains, not shown: another chain or arm of the molecule)
constant: B1 constant with A264I, M316S, L322S
B48: feline IgG1a A378K (antibody, part only; not given: Variable domains, not shown: another chain or arm of the molecule)
constant: B1 constant with A264K, M316S, L322S
B49: feline IgG1a A378L (antibody, part only; not given: Variable domains, not shown: another chain or arm of the molecule)
constant: B1 constant with A264L, M316S, L322S
B50: feline IgG1a A378M (antibody, part only; not given: Variable domains, not shown: another chain or arm of the molecule)
constant: B1 constant with A264M, M316S, L322S
B51: feline IgG1a A378N (antibody, part only; not given: variable domains and light chain, not shown: another chain or arm of the molecule)
constant: B1 constant with A264N, M316S, L322S
B52: feline IgG1a A378P (antibody, part only; not given: Variable domains, not shown: another chain or arm of the molecule)
constant: B1 constant with A264P, M316S, L322S

How the values were obtained:
[1] = molecular target: feline FcRn complex (FcRn-α subunit and β-microglobulin), biotin labeled (feline); test: SPR, pH 7.4
[2] = molecular target: feline FcRn complex (FcRn-α subunit and β-microglobulin), biotin labeled (feline); test: SPR, pH 6
[3] = molecular target: feline FcRn complex (FcRn-α subunit and β-microglobulin) (feline); test: SPR (Biacore), FcRn on SA chip, pH 6

Molecule	Kd [1] [nM]	Kd [2] [nM]	Kd [3] [nM]
feline IgG1a T403R (antibody)	840	6.22	–
feline IgG1a S252H/S428M/D312P (ID No. 215) (antibody)	41.2	3.24	–
feline IgG1a mutant ID No. 259: S428L (antibody)	–	–	24.5
feline IgG1a mutant ID No. 262: S428L (antibody)	–	–	25.4
feline IgG1a mutant ID No. 263: S252Y, S254T, T256E (antibody)	–	–	14
feline IgG1a S434Y/S434F (as printed) (antibody)	94.8	3.61	–
B1	–	–	8
B2	–	–	7.53
B3	–	–	71.7
B4	–	–	7.95
B5	–	–	78.6
B6	–	–	7.27
B7	–	–	27
B8	–	–	25.3
B9	–	–	2.17
B10	–	–	5.43
B11	–	–	12.8
B12	–	–	15.9
B13	–	–	9.6
B14	–	–	1.44

Molecule	Kd [1] [nM]	Kd [2] [nM]	Kd [3] [nM]
B15	–	–	6.07
B16	–	–	18.9
B17	–	–	2130
B18	–	–	11.4
B19	–	–	22.7
B20	–	–	0.00402
B21	–	–	0.00906
B22	–	3.35	–
B23	–	5.89	–
B24	–	6.58	–
B25	–	10.9	–
B26	–	6.91	–
B27	–	8.25	–
B28	–	5.69	–
B29	–	6.58	–
B30	–	4.51	–
B31	–	4.72	–
B32	–	5.21	–
B33	–	6.07	–
B34	–	4.66	–

Molecule	Kd [1] [nM]	Kd [2] [nM]	Kd [3] [nM]
B35	–	4.35	–
B36	–	4.94	–
B37	–	6.87	–
B38	–	8.79	–
B39	–	6.85	–
B40	–	8.01	–
B41	–	77.3	–
B42	–	100	–
B43	–	63.6	–
B44	–	74.8	–
B45	–	88.3	–
B46	–	49.3	–
B47	–	58.3	–
B48	–	104	–
B49	–	34.7	–
B50	–	26.6	–
B51	–	28.6	–
B52	–	68.4	–
